Experimental data: PMC13393415, “The bacterial SOS response promotes the expression of the transposase encoded by ISCR mobile genetic elements”

T1: His6-LexA (Escherichia coli) (UniProt P0A7C2)
T1 sequence: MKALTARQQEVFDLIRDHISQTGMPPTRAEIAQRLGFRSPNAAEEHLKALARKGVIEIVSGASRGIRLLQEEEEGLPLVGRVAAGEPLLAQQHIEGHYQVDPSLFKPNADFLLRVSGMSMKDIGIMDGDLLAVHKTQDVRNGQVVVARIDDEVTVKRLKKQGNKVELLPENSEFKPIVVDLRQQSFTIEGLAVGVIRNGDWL


What was measured:
[1] = target: T1, His6-LexA (Escherichia coli); assay: EMSA; settings: 10 mM HEPES pH 8, 10 mM Tris-HCl pH 8, 50 mM KCl, 1 mM EDTA; on ice 20 min; 40 ng DNA, 0-600 ng LexA in 10 uL; 6% native Tris-glycine PAGE, SYBR Green
His6-LexA = His6-LexA (Escherichia coli, UniProt P0A7C2 1-202); assay: EMSA; 10 mM HEPES pH 8, 10 mM Tris-HCl pH 8, 50 mM KCl, 1 mM EDTA; on ice 20 min; 40 ng DNA, 0-600 ng LexA in 10 uL; 6% native Tris-glycine PAGE, SYBR Green; settings: protein: recombinant; tags: N-terminal His6; blunt

Molecule | binding [1] | binding result (His6-LexA)
CAACCGGTAGTGGCTGATAACAACTCGTGAGGGCTATTGCGGGTTAAGCATTTAGCGATGTCTAGGGCCAGACTGGACGTCTGAACGCAAGCCGCTGATACTGTACATAACCACAGTATCAGCGGAGGATACCCATGTCGCTGGCAAGGAACGCCACGGCGAGTCAATCGCCCACTCAAACAAACGGTTACGAACGCCACCAACCCGACCAGACGCTG (double strand) [Prcr1] | binds | 
CCGGAATTCGGGAGTGACGGGCACTGGCTGGCAATGTCTAGCAACGGCAGGCATTTCGGCTGAGGGTAAAAGAACTTTCCGCTAAGCGATAGACTGTATGTAAACACAGTATTGCAAGGACGCGGAACATGCCTCATGTGGCGGCCAGGACGGCCAGCCGGGATCGGGATACTGGTCGTTACCAGAGCCACCGACCCGAGCAAACCCTT (double strand) [Prcr2] | binds | 
Prcr8 (dsDNA) DNA 1: GGCGACGGTTCGGGCCTTGTGCTTTGCGTACCCAAACAATCGCCGCAGAATACTGTGCATTTGTACAGCATTCATGTCAGCCACTTCCAAGCCCAAGCTCTACAACCCACGCCACCCCGA DNA 2: TCGGGGTGGCGTGGGTTGTAGAGCTTGGGCTTGGAAGTGGCTGACATGAATGCTGTACAAATGCACAGTATTCTGCGGCGATTGTTTGGGTACGCAAAGCACAAGGCCCGAACCGTCGCC |  | binds
Prcr8 L (dsDNA, LexA box mutated (terminal ACAG to AACT)) DNA 1: GGCGACGGTTCGGGCCTTGTGCTTTGCGTACCCAAACAATCGCCGCAGAATACTGTGCATTTGTAACTCATTCATGTCAGCCACTTCCAAGCCCAAGCTCTACAACCCACGCCACCCCGA DNA 2: TCGGGGTGGCGTGGGTTGTAGAGCTTGGGCTTGGAAGTGGCTGACATGAATGAGTTACAAATGCACAGTATTCTGCGGCGATTGTTTGGGTACGCAAAGCACAAGGCCCGAACCGTCGCC |  | no binding
